A word on the EC50: it is the concentration giving half of the maximal effect. For orientation: Kd means the free concentration of one partner at which half of the binding sites on the other are occupied at equilibrium, for simple one-to-one binding. Broadly, the IC50 is the midpoint of a concentration-inhibition curve.

Here are results for two substances from EP4786493A1.

Assay [1] has as its target human Claudin 18.2 expressed on cells (HEK293/human Claudin 18.2; CHO-K1/human Claudin 18.2) (human) (UniProt P56856). Briefly: cell-based or functional assay.
The target is the same in assay [2]. In words: flow cytometry on HEK293 cells expressing human Claudin 18.2.
In assay [3] the target is recombinant human Claudin 18.2 protein (GenScript, Z03504) (human) (UniProt P56856). Briefly: SPR Biacore 8K, antibody captured via Fc, human Claudin 18.2 protein as analyte. (Surface plasmon resonance follows binding to a sensor surface in real time, without labels.)
The target is the same in assay [4]. Briefly: competition ELISA on coated recombinant human Claudin 18.2; unlabelled IMAB362 against biotinylated IMAB362 (0.72 µg/ml). A general note: In an ELISA, binding on a coated surface is turned into a signal by an enzyme label.
For assay [5] the target is unchanged. In words: indirect ELISA, plate coated with recombinant human Claudin 18.2, anti-human IgG Fc-HRP detection.

In the case of Human IgG1 (antibody), in assay [1], the ADCC reporter gene assay (CHO-K1/Claudin 18.2 target cells, GS-J2C/CD16A 158V effector cells): EC50 was found to be 352 nM; the ADCC reporter gene assay (CHO-K1/Claudin 18.2 target cells, GS-J2C/CD16A 158V effector cells): Top was found to be 90500; the CDC on CHO-K1/human Claudin 18.2 cells: EC50 is 23.7; the CDC on CHO-K1/human Claudin 18.2 cells: Top was determined as 5.61%.

For “Zolbetuximab (IMAB362, HuIgG1) (antibody)”, the EC50 in assay [2] is 7.8 nM. The dissociation constant Kd in assay [3] came out at 39.3 nM. Besides, in assay [4], the half-maximal inhibitory concentration (IC50) was 1.79 nM. In assay [5], the EC50 is 1.53 nM. In assay [1], this substance had an ADCC reporter gene assay (CHO-K1/Claudin 18.2 target cells, GS-J2C/CD16A 158V effector cells): EC50 of 0.758 nM; an ADCC reporter gene assay (CHO-K1/Claudin 18.2 target cells, GS-J2C/CD16A 158V effector cells): Top of 213000; a CDC on CHO-K1/human Claudin 18.2 cells: Top of 93%.
